Experimental data from paper PMC6224390.

Molecular target: BG505 SOSIP trimer (HIV-1 (BG505)) (UniProt Q2N0S6)
Assay: SEC-MALS

In the case of “BG505 SOSIP trimer (from UniProt Q2N0S6 1-860; Q2N0S6 1-860) (complex)”, the stoichiometry N is reported as 3.
